Experimental data: patent US20040052799A1, “Nucleic acid and amino acid sequences relating to Helicobacter pylori for diagnostics and therapeutics” (Astra Aktiebolag, priority 1996, published 2004)

What was measured:
[1] = target: T1, H. pylori KDO-8-P synthase (Helicobacter pylori, UniProt Q9ZN55); test: KDO-8-P synthase Assay 1, PEP utilization at 232 nm; format: biochemical; settings: room temperature, 0.3 mM Ara5P, 0.3 mM PEP, pH 7.5
T1 construct: histidine tag; made in house
Experimental: The enzyme reaction was performed in a final volume of […] containing 0.3 mM Ara5P, 0.3 mM PEP and 0.1 M Tris-acetate pH 7.5. Reactions were started with […] of purified enzyme and were followed spectrophotometrically at 232 nm for 15 minutes. As a control, the mixture minus enzyme was measured. No decrease in the absorbance at 232 nm was observed when no enzyme was added. […] An extinction coefficient of 2840 M cm^−1 of PEP, was used to estimate that at room temperature, the activity of the enzyme was 0.7-mole/min/mg protein.

[2] = target: T1, H. pylori KDO-8-P synthase; test: Long term storage stability of KDO-8-P synthase
Experimental: The long term storage stability of the enzyme was tested over several conditions. […] Enzyme stored in 50% glycerol appeared to have less activity during extended storage at −20° C. (FIG. 9).

[3] = target: T1, H. pylori KDO-8-P synthase; test: KDO-8-P synthase Assay 2, Pi release, molybdate-malachite green; format: biochemical; parameters: unit not given here; settings: 25° C., 0.3 mM Ara5P, 0.3 mM PEP, 1.28 ug/ml enzyme
Experimental: Because of the potential interference of test compounds on the assay at 232 nm, a method was developed to measure the amount of Pi released in the reaction (Lanzatta et al. 1979).
This assay ws performed in a 96 well ELISA place, 50 ul assay mixtures containing 0,1 M Tris-acetate (pH 7.5), 0.3 mM Ara5P and 0.3 mM PEP, and 1.28 ug/ml of KDO-8-P synthase were incubated at 25° C. for different times. The reaction was then quenched with the addition of the molybdate-malachite green reagent. […] Under those conditions, the activity measured was 0.734-moles/min/mg protein, which was similar to the rate that was measured with the 232 nm assay.
When assayed in the presence of 0.02% Brij 35, the reaction proceeded faster. Under those conditions, the activity increased up to 1 mole/min mg protein.

B1: KDO-8-P synthase: recombinant H. pylori KDO-8-P synthase, histidine-tagged fusion protein (SEQ ID NO: 6945) (protein, listed as Helicobacter pylori)
chain: MKTSNTKTPKPVLIAGPCVIESLENLRSIAIKLQPLANNERLDFYFKASFDKANRTSLESYRGPGLEKGLEMLQTIKDEFGYKILTDVHESYQASVAAKVADILQIPAFLCRQTDLIVEVSQTNAIVNIKKGQFMNPKDMQYSVLKALKTRDSSIQSPTYETALKNGVWLCERGSSFGYGNLVVDMRSLKIMREFAPVIFDATHSVQMPGGANGKSSGDSSFPPILPRAAAAVGIDGLFAETHIDPKNALSDGANMLKPDELEHLVTDMLKIQNLF
modifications: His tag; misc_feature (B) LOCATION 1...276; hypothetical: YES
activity of the enzyme [1]: 0.7 mole/min/mg protein | activity after storage ([2]; 50 mM phosphate pH 8.0 and 1 mM PEP, −20° C., at least three weeks): no loss of activity | activity after storage ([2]; 50% glycerol, extended storage at −20° C., FIG. 9): less activity | activity measured [3]: 0.734
